Source: patent publication US20110118131A1 (published 2011)

molecular target: T1, IL-1β (UniProt P01584 117-269); experiment: Biacore, periplasmic extract
T1 construct: Antigen immobilised on the Biacore chip

| fold difference in affinity vs original [fold] | binding result | Binder |
| --- | --- | --- |
|  | no binding | XPA23 light chain W32N (Fab, V domains shown) VH: EVQLLESGGGLVQPGGSLRLSCAASGFTFSKYFMFWVRQAPGKGLEWVSVISPSGGMTRYADSVKGRFTISRDNSKNTLYLQMNSLRAEDTAVYYCARVGYGGNSDYWGQGTLVTVSS VL: DIQMTQSPSSVSASVGDRLTIICRASQDINRNLAWYQQTPGNAPKLLIHSATSLQSGVPSRFSGSGSGTDFTLTINSLQPEDFATYYCQQADSFPLTFGGGTKVEIK |
|  | no binding | XPA23 light chain W32Q (Fab, V domains shown) VH: EVQLLESGGGLVQPGGSLRLSCAASGFTFSKYFMFWVRQAPGKGLEWVSVISPSGGMTRYADSVKGRFTISRDNSKNTLYLQMNSLRAEDTAVYYCARVGYGGNSDYWGQGTLVTVSS VL: DIQMTQSPSSVSASVGDRLTIICRASQDINRQLAWYQQTPGNAPKLLIHSATSLQSGVPSRFSGSGSGTDFTLTINSLQPEDFATYYCQQADSFPLTFGGGTKVEIK |
|  | no binding | XPA23 light chain W32F (Fab, V domains shown) VH: EVQLLESGGGLVQPGGSLRLSCAASGFTFSKYFMFWVRQAPGKGLEWVSVISPSGGMTRYADSVKGRFTISRDNSKNTLYLQMNSLRAEDTAVYYCARVGYGGNSDYWGQGTLVTVSS VL: DIQMTQSPSSVSASVGDRLTIICRASQDINRFLAWYQQTPGNAPKLLIHSATSLQSGVPSRFSGSGSGTDFTLTINSLQPEDFATYYCQQADSFPLTFGGGTKVEIK |
|  | no binding | XPA23 light chain W32L (Fab, V domains shown) VH: EVQLLESGGGLVQPGGSLRLSCAASGFTFSKYFMFWVRQAPGKGLEWVSVISPSGGMTRYADSVKGRFTISRDNSKNTLYLQMNSLRAEDTAVYYCARVGYGGNSDYWGQGTLVTVSS VL: DIQMTQSPSSVSASVGDRLTIICRASQDINRLLAWYQQTPGNAPKLLIHSATSLQSGVPSRFSGSGSGTDFTLTINSLQPEDFATYYCQQADSFPLTFGGGTKVEIK |
|  | no binding | XPA23 light chain W32D (Fab, V domains shown) VH: EVQLLESGGGLVQPGGSLRLSCAASGFTFSKYFMFWVRQAPGKGLEWVSVISPSGGMTRYADSVKGRFTISRDNSKNTLYLQMNSLRAEDTAVYYCARVGYGGNSDYWGQGTLVTVSS VL: DIQMTQSPSSVSASVGDRLTIICRASQDINRDLAWYQQTPGNAPKLLIHSATSLQSGVPSRFSGSGSGTDFTLTINSLQPEDFATYYCQQADSFPLTFGGGTKVEIK |
|  | no binding | XPA23 light chain W32K (Fab, V domains shown) VH: EVQLLESGGGLVQPGGSLRLSCAASGFTFSKYFMFWVRQAPGKGLEWVSVISPSGGMTRYADSVKGRFTISRDNSKNTLYLQMNSLRAEDTAVYYCARVGYGGNSDYWGQGTLVTVSS VL: DIQMTQSPSSVSASVGDRLTIICRASQDINRKLAWYQQTPGNAPKLLIHSATSLQSGVPSRFSGSGSGTDFTLTINSLQPEDFATYYCQQADSFPLTFGGGTKVEIK |
|  | no binding | XPA23 light chain W32I (Fab, V domains shown) VH: EVQLLESGGGLVQPGGSLRLSCAASGFTFSKYFMFWVRQAPGKGLEWVSVISPSGGMTRYADSVKGRFTISRDNSKNTLYLQMNSLRAEDTAVYYCARVGYGGNSDYWGQGTLVTVSS VL: DIQMTQSPSSVSASVGDRLTIICRASQDINRILAWYQQTPGNAPKLLIHSATSLQSGVPSRFSGSGSGTDFTLTINSLQPEDFATYYCQQADSFPLTFGGGTKVEIK |
|  | no binding | XPA23 light chain W32P (Fab, V domains shown) VH: EVQLLESGGGLVQPGGSLRLSCAASGFTFSKYFMFWVRQAPGKGLEWVSVISPSGGMTRYADSVKGRFTISRDNSKNTLYLQMNSLRAEDTAVYYCARVGYGGNSDYWGQGTLVTVSS VL: DIQMTQSPSSVSASVGDRLTIICRASQDINRPLAWYQQTPGNAPKLLIHSATSLQSGVPSRFSGSGSGTDFTLTINSLQPEDFATYYCQQADSFPLTFGGGTKVEIK |
|  | no binding | XPA23 light chain W32G (Fab, V domains shown) VH: EVQLLESGGGLVQPGGSLRLSCAASGFTFSKYFMFWVRQAPGKGLEWVSVISPSGGMTRYADSVKGRFTISRDNSKNTLYLQMNSLRAEDTAVYYCARVGYGGNSDYWGQGTLVTVSS VL: DIQMTQSPSSVSASVGDRLTIICRASQDINRGLAWYQQTPGNAPKLLIHSATSLQSGVPSRFSGSGSGTDFTLTINSLQPEDFATYYCQQADSFPLTFGGGTKVEIK |
|  | no binding | XPA23 light chain W32E (Fab, V domains shown) VH: EVQLLESGGGLVQPGGSLRLSCAASGFTFSKYFMFWVRQAPGKGLEWVSVISPSGGMTRYADSVKGRFTISRDNSKNTLYLQMNSLRAEDTAVYYCARVGYGGNSDYWGQGTLVTVSS VL: DIQMTQSPSSVSASVGDRLTIICRASQDINRELAWYQQTPGNAPKLLIHSATSLQSGVPSRFSGSGSGTDFTLTINSLQPEDFATYYCQQADSFPLTFGGGTKVEIK |
|  | no binding | XPA23 light chain W32A (Fab, V domains shown) VH: EVQLLESGGGLVQPGGSLRLSCAASGFTFSKYFMFWVRQAPGKGLEWVSVISPSGGMTRYADSVKGRFTISRDNSKNTLYLQMNSLRAEDTAVYYCARVGYGGNSDYWGQGTLVTVSS VL: DIQMTQSPSSVSASVGDRLTIICRASQDINRALAWYQQTPGNAPKLLIHSATSLQSGVPSRFSGSGSGTDFTLTINSLQPEDFATYYCQQADSFPLTFGGGTKVEIK |
|  | no binding | XPA23 light chain W32H (Fab, V domains shown) VH: EVQLLESGGGLVQPGGSLRLSCAASGFTFSKYFMFWVRQAPGKGLEWVSVISPSGGMTRYADSVKGRFTISRDNSKNTLYLQMNSLRAEDTAVYYCARVGYGGNSDYWGQGTLVTVSS VL: DIQMTQSPSSVSASVGDRLTIICRASQDINRHLAWYQQTPGNAPKLLIHSATSLQSGVPSRFSGSGSGTDFTLTINSLQPEDFATYYCQQADSFPLTFGGGTKVEIK |

Further lines, the binder ahead of its results:

| Binder | fold difference in affinity vs original [fold] | binding result |
| --- | --- | --- |
| XPA23 light chain T52K (Fab, V domains shown) VH: EVQLLESGGGLVQPGGSLRLSCAASGFTFSKYFMFWVRQAPGKGLEWVSVISPSGGMTRYADSVKGRFTISRDNSKNTLYLQMNSLRAEDTAVYYCARVGYGGNSDYWGQGTLVTVSS VL: DIQMTQSPSSVSASVGDRLTIICRASQDINRWLAWYQQTPGNAPKLLIHSAKSLQSGVPSRFSGSGSGTDFTLTINSLQPEDFATYYCQQADSFPLTFGGGTKVEIK | 3.23 |  |
| XPA23 light chain T52W (Fab, V domains shown) VH: EVQLLESGGGLVQPGGSLRLSCAASGFTFSKYFMFWVRQAPGKGLEWVSVISPSGGMTRYADSVKGRFTISRDNSKNTLYLQMNSLRAEDTAVYYCARVGYGGNSDYWGQGTLVTVSS VL: DIQMTQSPSSVSASVGDRLTIICRASQDINRWLAWYQQTPGNAPKLLIHSAWSLQSGVPSRFSGSGSGTDFTLTINSLQPEDFATYYCQQADSFPLTFGGGTKVEIK | 0.87 |  |
| XPA23 light chain T52V (Fab, V domains shown) VH: EVQLLESGGGLVQPGGSLRLSCAASGFTFSKYFMFWVRQAPGKGLEWVSVISPSGGMTRYADSVKGRFTISRDNSKNTLYLQMNSLRAEDTAVYYCARVGYGGNSDYWGQGTLVTVSS VL: DIQMTQSPSSVSASVGDRLTIICRASQDINRWLAWYQQTPGNAPKLLIHSAVSLQSGVPSRFSGSGSGTDFTLTINSLQPEDFATYYCQQADSFPLTFGGGTKVEIK | 0.82 |  |
| XPA23 light chain T52L (Fab, V domains shown) VH: EVQLLESGGGLVQPGGSLRLSCAASGFTFSKYFMFWVRQAPGKGLEWVSVISPSGGMTRYADSVKGRFTISRDNSKNTLYLQMNSLRAEDTAVYYCARVGYGGNSDYWGQGTLVTVSS VL: DIQMTQSPSSVSASVGDRLTIICRASQDINRWLAWYQQTPGNAPKLLIHSALSLQSGVPSRFSGSGSGTDFTLTINSLQPEDFATYYCQQADSFPLTFGGGTKVEIK | 0.78 |  |
| XPA23 light chain T52R (Fab, V domains shown) VH: EVQLLESGGGLVQPGGSLRLSCAASGFTFSKYFMFWVRQAPGKGLEWVSVISPSGGMTRYADSVKGRFTISRDNSKNTLYLQMNSLRAEDTAVYYCARVGYGGNSDYWGQGTLVTVSS VL: DIQMTQSPSSVSASVGDRLTIICRASQDINRWLAWYQQTPGNAPKLLIHSARSLQSGVPSRFSGSGSGTDFTLTINSLQPEDFATYYCQQADSFPLTFGGGTKVEIK | 3.37 |  |
| XPA23 light chain T52Y (Fab, V domains shown) VH: EVQLLESGGGLVQPGGSLRLSCAASGFTFSKYFMFWVRQAPGKGLEWVSVISPSGGMTRYADSVKGRFTISRDNSKNTLYLQMNSLRAEDTAVYYCARVGYGGNSDYWGQGTLVTVSS VL: DIQMTQSPSSVSASVGDRLTIICRASQDINRWLAWYQQTPGNAPKLLIHSAYSLQSGVPSRFSGSGSGTDFTLTINSLQPEDFATYYCQQADSFPLTFGGGTKVEIK | 1.01 |  |
| XPA23 light chain T52N (Fab, V domains shown) VH: EVQLLESGGGLVQPGGSLRLSCAASGFTFSKYFMFWVRQAPGKGLEWVSVISPSGGMTRYADSVKGRFTISRDNSKNTLYLQMNSLRAEDTAVYYCARVGYGGNSDYWGQGTLVTVSS VL: DIQMTQSPSSVSASVGDRLTIICRASQDINRWLAWYQQTPGNAPKLLIHSANSLQSGVPSRFSGSGSGTDFTLTINSLQPEDFATYYCQQADSFPLTFGGGTKVEIK | 0.83 |  |
| XPA23 light chain T52P (Fab, V domains shown) VH: EVQLLESGGGLVQPGGSLRLSCAASGFTFSKYFMFWVRQAPGKGLEWVSVISPSGGMTRYADSVKGRFTISRDNSKNTLYLQMNSLRAEDTAVYYCARVGYGGNSDYWGQGTLVTVSS VL: DIQMTQSPSSVSASVGDRLTIICRASQDINRWLAWYQQTPGNAPKLLIHSAPSLQSGVPSRFSGSGSGTDFTLTINSLQPEDFATYYCQQADSFPLTFGGGTKVEIK | 1.08 |  |
| XPA23 light chain T52S (Fab, V domains shown) VH: EVQLLESGGGLVQPGGSLRLSCAASGFTFSKYFMFWVRQAPGKGLEWVSVISPSGGMTRYADSVKGRFTISRDNSKNTLYLQMNSLRAEDTAVYYCARVGYGGNSDYWGQGTLVTVSS VL: DIQMTQSPSSVSASVGDRLTIICRASQDINRWLAWYQQTPGNAPKLLIHSASSLQSGVPSRFSGSGSGTDFTLTINSLQPEDFATYYCQQADSFPLTFGGGTKVEIK | 0.78 |  |
| XPA23 light chain T52Q (Fab, V domains shown) VH: EVQLLESGGGLVQPGGSLRLSCAASGFTFSKYFMFWVRQAPGKGLEWVSVISPSGGMTRYADSVKGRFTISRDNSKNTLYLQMNSLRAEDTAVYYCARVGYGGNSDYWGQGTLVTVSS VL: DIQMTQSPSSVSASVGDRLTIICRASQDINRWLAWYQQTPGNAPKLLIHSAQSLQSGVPSRFSGSGSGTDFTLTINSLQPEDFATYYCQQADSFPLTFGGGTKVEIK | 0.83 |  |
